In experiment [1] the target is T1, cdr2, human peptide on HLA-A*02:01 (human).
T1 peptide: SLLEEMFLT
The experiment is described as follows: cytokine release.

In experiment [2] the target is T2, cdr2, human peptide on HLA-A*02:01 (human).
T2 peptide: SLLEEMFLTV
Kind of experiment: cytokine release.

The target in experiment [3] is T3, cdr2 (cerebellar degeneration-related 2 protein), human peptide on HLA-A*02:01 (human).
T3 peptide: LLEEMFLTV
Kind of experiment: multimer staining.

These results are taken from US20090208538A1 (published 2009).

B1: cdr2 TCR (clone 11/12) (TCR, V domains shown)
Valpha: QQQVRQSPQSLTVWEGGTTVLTCSYEDSTFNYFPWYQQFPGEGPALLISILSVSDKKEDGRFTTFFNKREKKLSLHIIDSQPGDSATYFCAASGASGGSNAKLTFGKGTKLSVKS
Vbeta: DSGVVQSPRHIIKEKGGRSVLTCIPISGHSNVVWYQQTLGKELKFLIQHYEKVERDKGFLPSRFSVQQFDDYHSEMNMSALELEDSAMYFCASSLGGWAEQFFGPGTRLTVL
As for B1, the binding result in experiment [1] is on record as “no recognition”; in experiment [2], “recognises”; in experiment [3] it was “recognises”.
